Data from patent US20230312745A1.

Key:
[1] = target: Ly6C on mouse blood mononuclear cells (mouse) (UniProt P0CW02); experiment: flow cytometry contour plot of live mononuclear-gated blood cells 1 h after injection into DSS treated mice; upper left quadrant 9.7; Mock panel 14.6 and 0.30
[2] = target: anti-CD34 antibody (clone mec14.7) RIg, self-assembled on ASSET LNPs (TsiLNPs); experiment: RIg taken up by ASSET LNPs, acrylamide gel against free RIg dilutions / western blot after 1 MDa dialysis
[3] = target: Rat IgG2a (RIg), clone FIB504 (BioXcell); experiment: ELISA on coated RIg, ASSET LNPs after dialysis, pre-incubated with 0.2% Triton X-100
[4] = target: Rat IgG2a (RIg), clone FIB504 (BioXcell); experiment: ELISA, plate coated with RIg, serial dilutions of ASSET, anti-His detection
[5] = target: LFA-1 on the mouse T cell lymphoma cell line TK1 (mouse) (UniProt P24063); experiment: flow cytometry, control: secondary scFv on TK1 cells without RIg; left gate 97.9; unstain 1.87; target taken as the LFA-1 carried by TK1 cells

Sequence of UniProt P0CW02 (P0CW02 27-109): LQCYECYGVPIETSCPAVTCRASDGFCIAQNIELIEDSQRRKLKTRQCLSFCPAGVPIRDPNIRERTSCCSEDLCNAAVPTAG

In the case of “isotype control RIg (BioXcell), self-assembled on ASSET LNPs (TsiLNPs) (antibody)”, the number in the upper right quadrant (Ly6C high, siCy5 high) [1] is reported as 0.53.

B1: ASSET (Anchored Secondary scFv Enabling Targeting) (scFv, part only; not given: mCherry fusion partner, part only)
scFv, part: CDQSSSEVQLLQSGPELVKPGASVKIPCKASGYTFTDYNMDWVKQSHEKSLEWIGYINPYSGDTIYNHKFKDKATLTVYKSSNIAYMELRSLTSEDTAVYYCARGGYDYGDHWGQGTTLTVSSGSAGGGGSGGGGSGGGGSDIKMTQSPSSMYASLGERVTITCKASQDINSYLSWFQQKPGKSPKTLIYRANRLVDGVPSRFSGSGSGQDYSLTISSLEYEDMGIYYCLQDDEFPRTFGGGTKLEIKHHHHHH
modifications: N-terminal cysteine of the CDQSSS NlpA motif is lipidated (bacterial lipidation)
For B1, the IgG incorporation [2] was 98.3%, the functionality maintained after incorporation into LNPs [3] was 95.8% and the Kd [4] was 10 nM.

B2: Secondary scFv (scFv of clone RG7/1.30, without lipidation motif) (scFv)
scFv: HHHHHHEVQLLQSGPELVKPGASVKIPCKASGYTFTDYNMDWVKQSHEKSLEWIGYINPYSGDTIYNHKFKDKATLTVYKSSNIAYMELRSLTSEDTAVYYCARGGYDYGDHWGQGTTLTVSSGSAGGGGSGGGGSGGGGSDIKMTQSPSSMYASLGERVTITCKASQDINSYLSWFQQKPGKSPKTLIYRANRLVDGVPSRFSGSGSGQDYSLTISSLEYEDMGIYYCLQDDEFPRTFGGGTKLEIK
For B2, the number in the right (positive) gate of the histogram [5] was 2.06.
